Laboratory results as given in patent publication US20240026032A1 (Alexion, published 2024).

T1: Human DLAT recombinant protein (ProSpec, Catalog # ENZ-082) (human, UniProt P10515 87-647, limits assumed)
T1 construct: also called DLAT antigen; Dihydrolipoamide Acetyltransferase
T1 sequence (looked up): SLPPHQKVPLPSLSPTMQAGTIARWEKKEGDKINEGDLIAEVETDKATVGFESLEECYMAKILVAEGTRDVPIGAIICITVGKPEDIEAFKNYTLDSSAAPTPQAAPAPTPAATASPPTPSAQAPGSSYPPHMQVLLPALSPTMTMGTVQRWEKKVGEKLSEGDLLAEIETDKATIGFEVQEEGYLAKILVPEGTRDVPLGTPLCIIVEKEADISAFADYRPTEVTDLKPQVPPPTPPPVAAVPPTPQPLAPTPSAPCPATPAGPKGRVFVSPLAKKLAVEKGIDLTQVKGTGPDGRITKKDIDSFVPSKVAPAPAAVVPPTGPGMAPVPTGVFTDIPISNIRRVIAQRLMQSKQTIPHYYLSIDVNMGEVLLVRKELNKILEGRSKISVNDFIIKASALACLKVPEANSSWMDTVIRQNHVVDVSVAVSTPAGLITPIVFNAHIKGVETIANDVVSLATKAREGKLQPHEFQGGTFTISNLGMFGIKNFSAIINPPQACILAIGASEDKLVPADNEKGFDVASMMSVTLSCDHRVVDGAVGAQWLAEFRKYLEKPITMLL

B1: TPP-992, human IgG2/4 PD5 antibody, N-terminus PD-L1 LC (antibody)
heavy: QLQLQESGPGLVKPSETLSLTCIVSGGSISRNSYYWGWIRQPPGKGLEWIGSIVYSGSTYHQPSLKSRVTIFLDTSKNQFFLKLTSVTAADTAVYYCARGTRATTWPPPIGYWGQGTLVTVSSASTKGPSVFPLAPCSRSTSESTAALGCLVKDYFPEPVTVSWNSGALTSGVHTFPAVLQSSGLYSLSSVVTVPSSNFGTQTYTCNVDHKPSNTKVDKTVERKCCVECPPCPAPPVAGPSVFLFPPKPKDTLMISRTPEVTCVVVDVSQEDPEVQFNWYVDGVEVHNAKTKPREEQFNSTYRVVSVLTVLHQDWLNGKEYKCKVSNKGLPSSIEKTISKAKGQPREPQVYTLPPSQEEMTKNQVSLTCLVKGFYPSDIAVEWESNGQPENNYKTTPPVLDSDGSFFLYSRLTVDKSRWQEGNVFSCSVMHEALHNHYTQKSLSLSLGK
light: FTVTVPKDLYVVEYGSNMTIECKFPVEKQLDLAALIVYWEMEDKNIIQFVHGEEDLKVQHSSYRQRARLLKDQLSLGNAALQITDVKLQDAGVYRCMISYGGADYKRITVKVNAGGSSRSSSSGGGGSGGGGQSVLTQPPSVSAAPGQKVTVSCFGSSSNIGNYFASWYQQLPGAAPRLLIYGNNERPSGIPDRFSGSKSGTSATLVITGLQTGDEAAYYCATWDSSLSAVVFGGGTKLTVLGQPKANPTVTLFPPSSEELQANKATLVCLISDFYPGAVTVAWKADGSPVKAGVETTKPSKQSNNKYAASSYLSLTPEQWKSHRSYSCQVTHEGSTVEKTVAPTECS
notes: Antibody fused with the human PD-L1 variable-like domain
B2: TPP-1003 (mIgG1 PD2 Ab) (antibody, V domains shown)
VH: EVQLVESGGGLVKPGGSLRLSCAASGFTFGSYSMTWVRQAPGKGLEWVSFISTVSTYIYYPDSVKGRFTISRDNAKNSLYLQMNSLRAEDTAVYYCARVSGRGSAARDGEKGTYYYYMDVWGKGTTVTVSS
VL: SSELTQDPAVSVALGQTVTITCQGDSLRSYYASWYQQKPGQAPVLVIFGKNNRPSGIPDRFSGSRSGNTASLTITGAQAEDEADYFCDSRDSSANHWVFGGGTKLTVLQ
notes: also called mouse IgG1 chimera anti-DLAT antibody PD2
B3: TPP-1005 (mIgG1 DWZ Ab) (antibody, V domains shown)
VH: EVQLLESGGDVVQPGGSLRLSCVASGFTLTNYVTAWVRRRPGKGLEWISGMTHGAVATYYSDSVRGRFSSSRDTSRSTLYLQMNDLTVEDTAIYYCAKSLHRSGTSLSYWGQGTLVTVSS
VL: QSVLTQPPSASGTPGQNINISCSGTTSNIGGSNVDWYQHVPGTAPKLFIHSNNQRPSGVPARFSASKSGTSASLAISGLQSEDEADYYCATWDVRLLAYVFGSATEVTVLR
notes: also called murine IgG1 DWZ
B4: TPP-986, human IgG2/4 PD5 antibody, N-terminus PD-L1 HC (antibody)
heavy: FTVTVPKDLYVVEYGSNMTIECKFPVEKQLDLAALIVYWEMEDKNIIQFVHGEEDLKVQHSSYRQRARLLKDQLSLGNAALQITDVKLQDAGVYRCMISYGGADYKRITVKVNAGGSSRSSSSGGGGSGGGGQLQLQESGPGLVKPSETLSLTCIVSGGSISRNSYYWGWIRQPPGKGLEWIGSIVYSGSTYHQPSLKSRVTIFLDTSKNQFFLKLTSVTAADTAVYYCARGTRATTWPPPIGYWGQGTLVTVSSASTKGPSVFPLAPCSRSTSESTAALGCLVKDYFPEPVTVSWNSGALTSGVHTFPAVLQSSGLYSLSSVVTVPSSNFGTQTYTCNVDHKPSNTKVDKTVERKCCVECPPCPAPPVAGPSVFLFPPKPKDTLMISRTPEVTCVVVDVSQEDPEVQFNWYVDGVEVHNAKTKPREEQFNSTYRVVSVLTVLHQDWLNGKEYKCKVSNKGLPSSIEKTISKAKGQPREPQVYTLPPSQEEMTKNQVSLTCLVKGFYPSDIAVEWESNGQPENNYKTTPPVLDSDGSFFLYSRLTVDKSRWQEGNVFSCSVMHEALHNHYTQKSLSLSLGK
light: QSVLTQPPSVSAAPGQKVTVSCFGSSSNIGNYFASWYQQLPGAAPRLLIYGNNERPSGIPDRFSGSKSGTSATLVITGLQTGDEAAYYCATWDSSLSAVVFGGGTKLTVLGQPKANPTVTLFPPSSEELQANKATLVCLISDFYPGAVTVAWKADGSPVKAGVETTKPSKQSNNKYAASSYLSLTPEQWKSHRSYSCQVTHEGSTVEKTVAPTECS
notes: as for B1
B5: TPP-994 (PD2 with PD-L1 fused to the C-terminus of the heavy chain) (Fab)
heavy: EVQLVESGGGLVKPGGSLRLSCAASGFTFGSYSMTWVRQAPGKGLEWVSFISTVSTYIYYPDSVKGRFTISRDNAKNSLYLQMNSLRAEDTAVYYCARVSGRGSAARDGEKGTYYYYMDVWGKGTTVTVSSASTKGPSVFPLAPSSKSTSGGTAALGCLVKDYFPEPVTVSWNSGALTSGVHTFPAVLQSSGLYSLSSVVTVPSSSLGTQTYICNVNHKPSNTKVDKRVEPKSCGGSSRSSSSGGGGSGGGGFTVTVPKDLYVVEYGSNMTIECKFPVEKQLDLAALIVYWEMEDKNIIQFVHGEEDLKVQHSSYRQRARLLKDQLSLGNAALQITDVKLQDAGVYRCMISYGGADYKRITVKVNA
light: SSELTQDPAVSVALGQTVTITCQGDSLRSYYASWYQQKPGQAPVLVIFGKNNRPSGIPDRFSGSRSGNTASLTITGAQAEDEADYFCDSRDSSANHWVFGGGTKLTVLQPKAAPSVTLFPPSSEELQANKATLVCLISDFYPGAVTVAWKADSSPVKAGVETTTPSKQSNNKYAASSYLSLTPEQWKSHKSYSCQVTHEGSTVEKTVAPTECS
notes: Fab fusion with the human PD-L1 variable-like domain
B6: TPP-995 (PD2 with PD-L1 fused to the N-terminus of the heavy chain) (Fab)
heavy: FTVTVPKDLYVVEYGSNMTIECKFPVEKQLDLAALIVYWEMEDKNIIQFVHGEEDLKVQHSSYRQRARLLKDQLSLGNAALQITDVKLQDAGVYRCMISYGGADYKRITVKVNAGGSSRSSSSGGGGSGGGGEVQLVESGGGLVKPGGSLRLSCAASGFTFGSYSMTWVRQAPGKGLEWVSFISTVSTYIYYPDSVKGRFTISRDNAKNSLYLQMNSLRAEDTAVYYCARVSGRGSAARDGEKGTYYYYMDVWGKGTTVTVSSASTKGPSVFPLAPSSKSTSGGTAALGCLVKDYFPEPVTVSWNSGALTSGVHTFPAVLQSSGLYSLSSVVTVPSSSLGTQTYICNVNHKPSNTKVDKRVEPKSC
light: SSELTQDPAVSVALGQTVTITCQGDSLRSYYASWYQQKPGQAPVLVIFGKNNRPSGIPDRFSGSRSGNTASLTITGAQAEDEADYFCDSRDSSANHWVFGGGTKLTVLQPKAAPSVTLFPPSSEELQANKATLVCLISDFYPGAVTVAWKADSSPVKAGVETTTPSKQSNNKYAASSYLSLTPEQWKSHKSYSCQVTHEGSTVEKTVAPTECS
notes: as for B5
B7: TPP-1004 (mIgG1 PD5 Ab) (antibody)
heavy: QLQLQESGPGLVKPSETLSLTCIVSGGSISRNSYYWGWIRQPPGKGLEWIGSIVYSGSTYHQPSLKSRVTIFLDTSKNQFFLKLTSVTAADTAVYYCARGTRATTWPPPIGYWGQGTLVTVSSAKTTPPSVYPLAPGSAAQTNSMVTLGCLVKGYFPEPVTVTWNSGSLSSGVHTFPAVLQSDLYTLSSSVTVPSSTWPSQTVTCNVAHPASSTKVDKKIVPRDCGCKPCICTVPEVSSVFIFPPKPKDVLTITLTPKVTCVVVDISKDDPEVQFSWFVDDVEVHTAQTKPREEQINSTFRSVSELPIMHQDWLNGKEFKCRVNSAAFPAPIEKTISKTKGRPKAPQVYTIPPPKEQMAKDKVSLTCMITNFFPEDITVEWQWNGQPAENYKNTQPIMDTDGSYFVYSKLNVQKSNWEAGNTFTCSVLHEGLHNHHTEKSLSHSPGK
light: QSVLTQPPSVSAAPGQKVTVSCFGSSSNIGNYFASWYQQLPGAAPRLLIYGNNERPSGIPDRFSGSKSGTSATLVITGLQTGDEAAYYCATWDSSLSAVVFGGGTKLTVLGQPRADAAPTVSIFPPSSEQLTSGGASVVCFLNNFYPKDINVKWKIDGSERQNGVLNSWTDQDSKDSTYSMSSTLTLTKDEYERHNSYTCEATHKTSTSPIVKSFNRNEC
notes: also called murine IgG1 PD5; Mouse PD5

What was measured:
[1] = target: T1, Human DLAT recombinant protein …; assay: BIAcore, AntiFc_TPP992_DLAT, kinetics from single concentration curve (12.5nM DLAT)
[2] = target: T2, Programmed Death 1 (PD-1) Fc chimera (R&D Systems, Catalog # 1086-PD-050) (human, UniProt Q15116 25-167); assay: BLI (Octet Red), TPP-992 loaded on anti-human IgG Fc tips, DLAT 10 µg/mL bound first, then PD-1 Fc 12.5 µg/mL
T2 construct: Bought reagent; not shown: Fc part of the bought chimera (captured by anti-human Fc tips)
Protocol: (§1) Antibodies and antibody fusions were diluted to 16 μg/mL in PBS and loaded onto anti-human IgG Fc tips (ForteBio, Catalog # 18-5064). Human DLAT recombinant protein (ProSpec, Catalog # ENZ-082) was diluted into PBS to 10 μg/mL. […] Finally, a dissociation step in PBS was performed to determine dissociation from the bound antibodies.

[3] = target: T1, Human DLAT recombinant protein …; assay: BIAcore kinetics, antibody captured on anti-mouse surface, DLAT (Prospec) as analyte
[4] = target: T2, Programmed Death 1 (PD-1) Fc chimera …; assay: BLI (Octet Red), TPP-986 loaded on anti-human IgG Fc tips, DLAT 10 µg/mL bound first, then PD-1 Fc 12.5 µg/mL
Protocol: as §1

[5] = target: T2, Programmed Death 1 (PD-1) Fc chimera …; assay: BLI (Octet), PD-1 Fc captured on anti-human Fc tips, TPP-994 at 10 µg/mL in PBS as analyte
Protocol: (§2) Final dissociation in PBS was performed in the last step on the Bio-Layer Interferometry (BLI) data.

[6] = target: T2, Programmed Death 1 (PD-1) Fc chimera …; assay: BLI (Octet), PD-1 Fc captured on anti-human Fc tips, TPP-995 at 10 µg/mL in PBS as analyte
Protocol: as §2

T2 sequence (Q15116 25-167, change not shown): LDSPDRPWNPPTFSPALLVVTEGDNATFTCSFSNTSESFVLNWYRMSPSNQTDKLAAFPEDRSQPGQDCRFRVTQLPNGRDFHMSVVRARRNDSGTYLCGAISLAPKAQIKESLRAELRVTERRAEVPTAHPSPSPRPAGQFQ

Binder	Kd [3] [nM]	koff [3] [s⁻¹]	kon [3] [M⁻¹ s⁻¹]	also measured
B1	–	–	–	Kd [1]: 0.184 nM; koff [1]: 0.000238 s⁻¹; kon [1]: 1.29e+06 M⁻¹ s⁻¹; binding result [2]: binds
B2	0.242	4.68e-05	193000	–
B3	1.72	0.000149	86300	–
B4	–	–	–	binding result [4]: binds
B5	–	–	–	binding result [5]: binds
B6	–	–	–	binding result [6]: binds
B7	0.526	1.94e-05	36900	–
